Test results from the supplement of paper PMC9170038.

test system: K4 kissing-loop RNA reporter; test: apparent KD of K4 kissing-loop reporter; higher = weaker reporter binding; details: Eterna round: R107; input ligand: FMN 200 uM
Experimental: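 RNA-MaP round R107: designed RNA switches with theophylline, tryptophan, arginine or FMN aptamers are transcribed on-chip within common flanks. They are titrated with a labelled K4 kissing-loop RNA reporter in RNA-MaP buffer (100 mM Tris pH 7.5, 80 mM KCl, 4 mM MgCl2), without ligand or with the indicated ligand. Median apparent KD per design.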
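Further: bound reporter read as fluorescence of individual clusters on recovered sequencing chips by microscopy, with normalized cluster intensities fitted with a binding model.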

Point of comparison: “UAUAUAGUGACGGCCGCCACUAUUGUGAUGUUGUUGUUAGAGUGAUGUUUUGUUGUUUGAUUUUGUAGGACCGGGUUAUAUGUUA [ffdfzmullin]”, “apparent KD of K4 kissing-loop reporter” value 780 nM. Against it:
- UGGAGUUGACGAAAAGUCAACUCCUGAGAUACCAGUGACGAAGGUCACCCUUGGCAGCUCACUGCCAGUGAUGUUGGAAGAUAAA [whbob_SS_Theo_A_w47] — 2.9-fold lower, 273 nM
- GGAUCCUAGGCGGCCGCCACUCCAUCGUACCGAAAGGUAUGAUACCGAGUGAUGUUCGGUUGGAGGAGGACCGGGCCUAGGAUCC [#2 Exclusion - Tryptophan B Attempt #3 (HarryS)] — 5.3-fold lower, 147 nM
- GCCGUACGCAUGGAUACCAGCACACAACGAAGUGAUGUUUCGUGCGUAGAUUUGUGCUACUGCCCUUGGCAGCCAUGCGUACGGC — 9-fold lower, 86.6 nM
- UGAUAGGACAGAAGGAGCGGGAGUGAUGUUCCCAAAAGAAUAAGGUGUCAAAAGACACCCUUCCAGGUAGGUCGCUGUCCUAUCU — 9.5-fold lower, 82.2 nM
- UUAGGGAUCUCGGCCGCCACUCGUGGGAAAUGGGCCUCAGGGAUAUAGUGAUGUUAUGUAAAGAAGAGGACCGGGAGAAGGAAGG [ExTryptoB.Di] — 1.7-fold lower, 451 nM
- AAAGCUUGGAUGGACGUUAGCGACGGAGAAGGAGCGCACGGAAGUGCAGGUAGGUCGCUCCGAGUGAUGUUCGUGAGUGAUUGCU [Ditienti] — 3.4-fold lower, 229 nM
- UUACUACCCAGUGAUGUUGGGUAGCGGCGGCGAGGACCGGUACGGCCGCCACUCGGCGCACGGGAGUGAUGUUCCUGGGAAUAUA [Same State Tryptophan A GF 10] — 2.8-fold lower, 281 nM
- UGGACGUUAUACAAAUAGUAUAACUGGGAUACCAGUGACGAAAGUCACCCUUGGCAGCUCAACUGCCAGUGAUGUUGGUAGUCCA [Astros-Eli-mod#4] — 2.5-fold lower, 307 nM
- GCGCAUGUUAAAGGAUAUAGCAGGUGAUACAAGAAAGUGAGUGAUGUUUAUGUAGAUGAUGAUAUGUUAGAAGGUUAACAAAAGC [abcdefghijklmn] — within 1.5-fold, 717 nM
- AGAGUUAUAUGAGGAUAUGAGAUAGUUAAUGAGUGAGUUAUAGUGUAGUUUGUUUAGUGAUGUUAUUUAGAAGGCGUGAGUGAUG [ljjlumullin] — 5.6-fold lower, 140 nM
- GUAUCGCUAGGAGGAUAUUUCAAAUAACAAAUAAAUGGUUAUACGGAGUGAUGUUCCGAUUUACGGAAAGAAGGCCUAGUGAUAC [FMN B 4] — 7-fold lower, 112 nM
- UGUGAUGUGUAGUGUUAUGUUUUGAGGGAUACCAGAGUCUUUUUAUUCCCUUGGCAGCUUGAGUGAUGUUUGAUGCUGUUGUUGU [dvccmullin] — 1.7-fold lower, 463 nM
- UUUAUAUUGUCGGCCGCCACUGGAUUAAUAUUUGUAUAAUCUAGUUCAAAGUGAUGUUUUGAGUCCAGGACCGGGACAUUUGUUA [JR_ExcTryptoB_Sub004] — within 1.5-fold, 670 nM
- GAUAAUUACGUAGGAUAUCCAUAUCCGCGGUCUUGAUGGAUUUUUACGAUCCAGUGAUGUUGGAUUGGAGAAGGACGGAGGCAAA [Arquedis] — 2.7-fold lower, 289 nM
- CGCCAGUGAUGUUGGCGCAGGUUGCGGGAAGGAGCGCGCGUAAGCGCAGGUAGGUCGCCUGCAGGCCAGUGAUGUUGGCAAUCUG [Same State Arginine A GF 30] — 6-fold lower, 130 nM
- GUCUCAAAAGAGGCAAGCACUCACGAGGACAAGGAUAUCAUUUCAAUGAGAAGGUGUCCUCGUCCUCAGUGAUGUUGAGGAGUGC [Omei KL FMN A SS E 1] — 1.8-fold lower, 423 nM
- CAUAGGAAACUAUGUAUCUCUCUGACUGAAGGAGCGCGUGAAAACGCAGGUAGGUCGCAGAAUUUAACAGAGAGUGAUGUUCUCU [Ex Arginine A K4 9] — 2.5-fold lower, 310 nM

same assay, conditions: Eterna round: R107; input ligand: arginine 13.2 mM

Point of comparison: “UUUAUAUUGUCGGCCGCCACUGGAUUAAUAUUUGUAUAAUCUAGUUCAAAGUGAUGUUUUGAGUCCAGGACCGGGACAUUUGUUA [JR_ExcTryptoB_Sub004]”, “apparent KD of K4 kissing-loop reporter” value 515 nM. Against it:
- UGGAGUUGACGAAAAGUCAACUCCUGAGAUACCAGUGACGAAGGUCACCCUUGGCAGCUCACUGCCAGUGAUGUUGGAAGAUAAA [whbob_SS_Theo_A_w47] — 1.8-fold lower, 292 nM
- GGAUCCUAGGCGGCCGCCACUCCAUCGUACCGAAAGGUAUGAUACCGAGUGAUGUUCGGUUGGAGGAGGACCGGGCCUAGGAUCC [#2 Exclusion - Tryptophan B Attempt #3 (HarryS)] — 4.6-fold lower, 112 nM
- GCCGUACGCAUGGAUACCAGCACACAACGAAGUGAUGUUUCGUGCGUAGAUUUGUGCUACUGCCCUUGGCAGCCAUGCGUACGGC — 7.5-fold lower, 69 nM
- UGAUAGGACAGAAGGAGCGGGAGUGAUGUUCCCAAAAGAAUAAGGUGUCAAAAGACACCCUUCCAGGUAGGUCGCUGUCCUAUCU — 3.9-fold lower, 131 nM
- UUAGGGAUCUCGGCCGCCACUCGUGGGAAAUGGGCCUCAGGGAUAUAGUGAUGUUAUGUAAAGAAGAGGACCGGGAGAAGGAAGG [ExTryptoB.Di] — within 1.5-fold, 364 nM
- AAAGCUUGGAUGGACGUUAGCGACGGAGAAGGAGCGCACGGAAGUGCAGGUAGGUCGCUCCGAGUGAUGUUCGUGAGUGAUUGCU [Ditienti] — 1.6-fold lower, 329 nM
- UUACUACCCAGUGAUGUUGGGUAGCGGCGGCGAGGACCGGUACGGCCGCCACUCGGCGCACGGGAGUGAUGUUCCUGGGAAUAUA [Same State Tryptophan A GF 10] — 2.8-fold lower, 187 nM
- UGGACGUUAUACAAAUAGUAUAACUGGGAUACCAGUGACGAAAGUCACCCUUGGCAGCUCAACUGCCAGUGAUGUUGGUAGUCCA [Astros-Eli-mod#4] — 3.3-fold lower, 158 nM
- UAUAUAGUGACGGCCGCCACUAUUGUGAUGUUGUUGUUAGAGUGAUGUUUUGUUGUUUGAUUUUGUAGGACCGGGUUAUAUGUUA [ffdfzmullin] — within 1.5-fold, 500 nM
- GCGCAUGUUAAAGGAUAUAGCAGGUGAUACAAGAAAGUGAGUGAUGUUUAUGUAGAUGAUGAUAUGUUAGAAGGUUAACAAAAGC [abcdefghijklmn] — within 1.5-fold, 624 nM
- AGAGUUAUAUGAGGAUAUGAGAUAGUUAAUGAGUGAGUUAUAGUGUAGUUUGUUUAGUGAUGUUAUUUAGAAGGCGUGAGUGAUG [ljjlumullin] — 5.8-fold lower, 89.4 nM
- GUAUCGCUAGGAGGAUAUUUCAAAUAACAAAUAAAUGGUUAUACGGAGUGAUGUUCCGAUUUACGGAAAGAAGGCCUAGUGAUAC [FMN B 4] — 2.5-fold lower, 203 nM
- UGUGAUGUGUAGUGUUAUGUUUUGAGGGAUACCAGAGUCUUUUUAUUCCCUUGGCAGCUUGAGUGAUGUUUGAUGCUGUUGUUGU [dvccmullin] — 1.5-fold lower, 342 nM
- GAUAAUUACGUAGGAUAUCCAUAUCCGCGGUCUUGAUGGAUUUUUACGAUCCAGUGAUGUUGGAUUGGAGAAGGACGGAGGCAAA [Arquedis] — within 1.5-fold, 392 nM
- CGCCAGUGAUGUUGGCGCAGGUUGCGGGAAGGAGCGCGCGUAAGCGCAGGUAGGUCGCCUGCAGGCCAGUGAUGUUGGCAAUCUG [Same State Arginine A GF 30] — 4.7-fold lower, 110 nM
- GUCUCAAAAGAGGCAAGCACUCACGAGGACAAGGAUAUCAUUUCAAUGAGAAGGUGUCCUCGUCCUCAGUGAUGUUGAGGAGUGC [Omei KL FMN A SS E 1] — 3.2-fold lower, 159 nM
- CAUAGGAAACUAUGUAUCUCUCUGACUGAAGGAGCGCGUGAAAACGCAGGUAGGUCGCAGAAUUUAACAGAGAGUGAUGUUCUCU [Ex Arginine A K4 9] — 2-fold lower, 259 nM

same assay, conditions: Eterna round: R107; input ligand: none

Point of comparison: “AAAGCUUGGAUGGACGUUAGCGACGGAGAAGGAGCGCACGGAAGUGCAGGUAGGUCGCUCCGAGUGAUGUUCGUGAGUGAUUGCU [Ditienti]”, “apparent KD of K4 kissing-loop reporter” value 385 nM. Against it:
- UGGAGUUGACGAAAAGUCAACUCCUGAGAUACCAGUGACGAAGGUCACCCUUGGCAGCUCACUGCCAGUGAUGUUGGAAGAUAAA [whbob_SS_Theo_A_w47] — within 1.5-fold, 303 nM
- GGAUCCUAGGCGGCCGCCACUCCAUCGUACCGAAAGGUAUGAUACCGAGUGAUGUUCGGUUGGAGGAGGACCGGGCCUAGGAUCC [#2 Exclusion - Tryptophan B Attempt #3 (HarryS)] — 3.1-fold lower, 124 nM
- GCCGUACGCAUGGAUACCAGCACACAACGAAGUGAUGUUUCGUGCGUAGAUUUGUGCUACUGCCCUUGGCAGCCAUGCGUACGGC — 4.7-fold lower, 82.2 nM
- UGAUAGGACAGAAGGAGCGGGAGUGAUGUUCCCAAAAGAAUAAGGUGUCAAAAGACACCCUUCCAGGUAGGUCGCUGUCCUAUCU — 3.6-fold lower, 106 nM
- UUAGGGAUCUCGGCCGCCACUCGUGGGAAAUGGGCCUCAGGGAUAUAGUGAUGUUAUGUAAAGAAGAGGACCGGGAGAAGGAAGG [ExTryptoB.Di] — within 1.5-fold, 476 nM
- UUACUACCCAGUGAUGUUGGGUAGCGGCGGCGAGGACCGGUACGGCCGCCACUCGGCGCACGGGAGUGAUGUUCCUGGGAAUAUA [Same State Tryptophan A GF 10] — within 1.5-fold, 375 nM
- UGGACGUUAUACAAAUAGUAUAACUGGGAUACCAGUGACGAAAGUCACCCUUGGCAGCUCAACUGCCAGUGAUGUUGGUAGUCCA [Astros-Eli-mod#4] — 2.2-fold lower, 172 nM
